Data on five sequences can be found in the supplement of paper PMC5998384.

The subject of data set [1] is HeLa Kyoto. In words: solubility in G1/S (NP-40 vs SDS abundance) (log2 ratio); higher = more soluble. Conditions: cell cycle stage: G1/S.
Data set [2] relates to HeLa Kyoto. The data set is described as follows: melting temperature (median over replicates), in situ; higher = more thermally stable.
Data set [3] relates to HeLa Kyoto. The data set is described as follows: solubility change mitosis vs G1/S (difference of NP-40 vs SDS log2 ratios) (log2 ratio difference); higher = more soluble in mitosis.
In data set [4] the test system is HeLa Kyoto. In words: thermal stability score vs G1/S (z-score of summed log2 fold changes over temperatures); higher = more thermally stable than in G1/S.
Setting [5] is: cell cycle stage: early G1 (4.5 h after nocodazole release).
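Throughout, for melting temperature (median over replicates), in situ: HeLa Kyoto cells synchronized by double thymidine or nocodazole block, proteins quantified by TMT10plex mass spectrometry, three independent biological replicates.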
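Throughout, for solubility change mitosis vs G1/S (difference of NP-40 vs SDS log2 ratios): synchronized HeLa Kyoto cells (double thymidine block for G1/S, nocodazole release for mitosis), protein amounts in NP-40 versus SDS lysates quantified by mass spectrometry, three biological replicates.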
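Throughout, for solubility in G1/S (NP-40 vs SDS abundance): HeLa Kyoto cells arrested at G1/S by double thymidine block, proteins quantified by TMT10plex mass spectrometry in mild NP-40 versus SDS extracts, three biological replicates.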
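Throughout, for thermal stability score vs G1/S (z-score of summed log2 fold changes over temperatures): synchronized HeLa Kyoto cells, proteins quantified by TMT10plex mass spectrometry, three biological replicates, mitosis taken 0.5 h after nocodazole release, G1/S directly after double thymidine block.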

For the sequence “MSMEDYDFLFKIVLIGNAGVGKTCLVRRFTQGLFPPGQGATIGVDFMIKTVEINGEKVKLQIWDTAGQERFRSITQSYYRSANALILTYDITCEESFRCLPEWLREIEQYASNKVITVLVGNKIDLAERREVSQQRAEEFSEAQDMYYLETSAKESDNVEKLFLDLACRLISEARQNTLVNNVSSPLPGEGKSISYLTCCNFN [RAB30]”, in the data set with HeLa Kyoto [1], the “solubility in G1/S (log2)” value was -0.379. For the same sequence, the melting temperature in the data set with HeLa Kyoto [2] (cell cycle stage: G1/S) turned out to be 51.3 °C; in the data set with HeLa Kyoto [2] (cell cycle stage: mitosis) it was 51.7 °C. Moreover, the “solubility change mitosis (log2)” value with HeLa Kyoto [3] is -0.0812. Further, the values for the thermal stability score in the data set with HeLa Kyoto [4] (setting [5]) and with HeLa Kyoto [4] (cell cycle stage: mitosis) were 0.727 and 1.4, respectively.
Take “MSMLKPSGLKAPTKILKPGSTALKTPTAVVAPVEKTISSEKASSTPSSETQEEFVDDFRVGERVWVNGNKPGFIQFLGETQFAPGQWAGIVLDEPIGKNDGSVAGVRYFQCEPLKGIFTRPSKLTRKVQAEDEANGLQTTPASRATSPLCTSTASMVSSSPSTPSNIPQKPSQPAAKEPSATPPISNLTKTASESISNLSEAGSIKKGERELKIGDRVLVGGTKAGVVRFLGETDFAKGEWCGVELDEPLGKNDGAVAGTRYFQCQPKYGLFAPVHKVTKIGFPSTTPAKAKANAVRRVMATTSASLKRSPSASSLSSMSSVASSVSSRPSRTGLLTETSSRYARKISGTTALQEALKEKQQHIEQLLAERDLERAEVAKATSHVGEIEQELALARDGHDQHVLELEAKMDQLRTMVEAADREKVELLNQLEEEKRKVEDLQFRVEEESITKGDLEQKSQISEDPENTQTKLEHARIKELEQSLLFEKTKADKLQRELEDTRVATVSEKSRIMELEKDLALRVQEVAELRRRLESNKPAGDVDMSLSLLQEISSLQEKLEVTRTDHQREITSLKEHFGAREETHQKEIKALYTATEKLSKENESLKSKLEHANKENSDVIALWKSKLETAIASHQQAMEELKVSFSKGLGTETAEFAELKTQIEKMRLDYQHEIENLQNQQDSERAAHAKEMEALRAKLMKVIKEKENSLEAIRSKLDKAEDQHLVEMEDTLNKLQEAEIKVKELEVLQAKCNEQTKVIDNFTSQLKATEEKLLDLDALRKASSEGKSEMKKLRQQLEAAEKQIKHLEIEKNAESSKASSITRELQGRELKLTNLQENLSEVSQVKETLEKELQILKEKFAEASEEAVSVQRSMQETVNKLHQKEEQFNMLSSDLEKLRENLADMEAKFREKDEREEQLIKAKEKLENDIAEIMKMSGDNSSQLTKMNDELRLKERDVEELQLKLTKANENASFLQKSIEDMTVKAEQSQQEAAKKHEEEKKELERKLSDLEKKMETSHNQCQELKARYERATSETKTKHEEILQNLQKTLLDTEDKLKGAREENSGLLQELEELRKQADKAKAAQTAEDAMQIMEQMTKEKTETLASLEDTKQTNAKLQNELDTLKENNLKNVEELNKSKELLTVENQKMEEFRKEIETLKQAAAQKSQQLSALQEENVKLAEELGRSRDEVTSHQKLEEERSVLNNQLLEMKKRESKFIKDADEEKASLQKSISITSALLTEKDAELEKLRNEVTVLRGENASAKSLHSVVQTLESDKVKLELKVKNLELQLKENKRQLSSSSGNTDTQADEDERAQESQIDFLNSVIVDLQRKNQDLKMKVEMMSEAALNGNGDDLNNYDSDDQEKQSKKKPRLFCDICDCFDLHDTEDCPTQAQMSEDPPHSTHHGSRGEERPYCEICEMFGHWATNCNDDETF [CLIP1]”: the “solubility in G1/S (log2)” value with HeLa Kyoto [1] is 0.37. In addition, the melting temperature in the data set with HeLa Kyoto [2] (cell cycle stage: G1/S) is 54.7 °C; in the data set on HeLa Kyoto [2] (cell cycle stage: mitosis), 54.2 °C. Moreover, the “solubility change mitosis (log2)” value in the data set on HeLa Kyoto [3] was -0.0152. In addition, the values for the thermal stability score with HeLa Kyoto [4] (setting [5]) and with HeLa Kyoto [4] (cell cycle stage: mitosis) were -1.53 and -1.75, respectively.
As to “MSNAKERKHAKKMRNQPTNVTLSSGFVADRGVKHHSGGEKPFQAQKQEPHPGTSRQRQTRVNPHSLPDPEVNEQSSSKGMFRKKGGWKAGPEGTSQEIPKYITASTFAQARAAEISAMLKAVTQKSSNSLVFQTLPRHMRRRAMSHNVKRLPRRLQEIAQKEAEKAVHQKKEHSKNKCHKARRCHMNRTLEFNRRQKKNIWLETHIWHAKRFHMVKKWGYCLGERPTVKSHRACYRAMTNRCLLQDLSYYCCLELKGKEEEILKALSGMCNIDTGLTFAAVHCLSGKRQGSLVLYRVNKYPREMLGPVTFIWKSQRTPGDPSESRQLWIWLHPTLKQDILEEIKAACQCVEPIKSAVCIADPLPTPSQEKSQTELPDEKIGKKRKRKDDGENAKPIKKIIGDGTRDPCLPYSWISPTTGIIISDLTMEMNRFRLIGPLSHSILTEAIKAASVHTVGEDTEETPHRWWIETCKKPDSVSLHCRQEAIFELLGGITSPAEIPAGTILGLTVGDPRINLPQKKSKALPNPEKCQDNEKVRQLLLEGVPVECTHSFIWNQDICKSVTENKISDQDLNRMRSELLVPGSQLILGPHESKIPILLIQQPGKVTGEDRLGWGSGWDVLLPKGWGMAFWIPFIYRGVRVGGLKESAVHSQYKRSPNVPGDFPDCPAGMLFAEEQAKNLLEKYKRRPPAKRPNYVKLGTLAPFCCPWEQLTQDWESRVQAYEEPSVASSPNGKESDLRRSEVPCAPMPKKTHQPSDEVGTSIEHPREAEEVMDAGCQESAGPERITDQEASENHVAATGSHLCVLRSRKLLKQLSAWCGPSSEDSRGGRRAPGRGQQGLTREACLSILGHFPRALVWVSLSLLSKGSPEPHTMICVPAKEDFLQLHEDWHYCGPQESKHSDPFRSKILKQKEKKKREKRQKPGRASSDGPAGEEPVAGQEALTLGLWSGPLPRVTLHCSRTLLGFVTQGDFSMAVGCGEALGFVSLTGLLDMLSSQPAAQRGLVLLRPPASLQYRFARIAIEV [POP1]”, the “solubility in G1/S (log2)” value in the data set on HeLa Kyoto [1] was -0.778. Also, the figures for the melting temperature in the data set with HeLa Kyoto [2] (cell cycle stage: G1/S) and in the data set on HeLa Kyoto [2] (cell cycle stage: mitosis) were 52.2 °C and 51.8 °C, respectively. The “solubility change mitosis (log2)” value with HeLa Kyoto [3] stood at 0.246. The thermal stability score in the data set on HeLa Kyoto [4] (setting [5]) is 1.22; with HeLa Kyoto [4] (cell cycle stage: mitosis), -1.05.
Consider “MSNIYIQEPPTNGKVLLKTTAGDIDIELWSKEAPKACRNFIQLCLEAYYDNTIFHRVVPGFIVQGGDPTGTGSGGESIYGAPFKDEFHSRLRFNRRGLVAMANAGSHDNGSQFFFTLGRADELNNKHTIFGKVTGDTVYNMLRLSEVDIDDDERPHNPHKIKSCEVLFNPFDDIIPREIKRLKKEKPEEEVKKLKPKGTKNFSLLSFGEEAEEEEEEVNRVSQSMKGKSKSSHDLLKDDPHLSSVPVVESEKGDAPDLVDDGEDESAEHDEYIDGDEKNLMRERIAKKLKKDTSANVKSAGEGEVEKKSVSRSEELRKEARQLKRELLAAKQKKVENAAKQAEKRSEEEEAPPDGAVAEYRREKQKYEALRKQQSKKGTSREDQTLALLNQFKSKLTQAIAETPENDIPETEVEDDEGWMSHVLQFEDKSRKVKDASMQDSDTFEIYDPRNPVNKRRREESKKLMREKKERR [CWC27]”, for which the “solubility in G1/S (log2)” value with HeLa Kyoto [1] was 0.0954. The melting temperature in the data set with HeLa Kyoto [2] (cell cycle stage: G1/S) was 47.3 °C; in the data set with HeLa Kyoto [2] (cell cycle stage: mitosis) it was 49.8 °C. In the data set on HeLa Kyoto [3], the “solubility change mitosis (log2)” value was determined as 0.0672. Besides, the thermal stability score with HeLa Kyoto [4] (setting [5]) is 0.415; in the data set on HeLa Kyoto [4] (cell cycle stage: mitosis), 1.04.
For the sequence “MSNSRPRSRRDAGGGAGAAGRDELVSRSLQSAEHCLGVQDFGTAYAHYLLVLSLAPELKHDVKETFQYTLFRWAEELDALSRIQDLLGCYEQALELFPDDEVICNSMGEHLFRMGFRDEAAGYFHKAVKLNPDFSDAKENFYRVANWLVERWHFIMLNDTKRNTIYNAAIQKAVCLGSKSVLDIGAGTGILSMFAKKAGAHSVYACELSKTMYELACDVVAANKMEAGIKLLHTKSLDIEIPKHIPERVSLVVTETVDAGLFGEGIVESLIHAWEHLLLQPKTKGESANCEKYGKVIPASAVIFGMAVECAEIRRHHRVGIKDIAGIHLPTNVKFQSPAYSSVDTEETIEPYTTEKMSRVPGGYLALTECFEIMTVDFNNLQELKSLATKKPDKIGIPVIKEGILDAIMVWFVLQLDDEHSLSTSPSEETCWEQAVYPVQDLADYWIKPGDHVMMEVSCQDCYLRIQSISVLGLECEMDVAKSFTQNKDLLSLGNEAELCSALANLQTSKPDAVEQTCILESTEIALLNNIPYHEGFKMAMSKVLSSLTPEKLYQTMDTHCQNEMSSGTGQSNTVQNILEPFYVLDVSEGFSVLPVIAGTLGQVKPYSSVEKDQHRIALDLISEANHFPKETLEFWLRHVEDESAMLQRPKSDKLWSIIILDVIEPSGLIQQEIMEKAAISRCLLQSGGKIFPQYVLMFGLLVESQTLLEENAVQGTERTLGLNIAPFINQFQVPIRVFLDLSSLPCIPLSKPVELLRLDLMTPYLNTSNREVKVYVCKSGRLTAIPFWYHMYLDEEIRLDTSSEASHWKQAAVVLDNPIQVEMGEELVLSIQHHKSNVSITVKQ [PRMT9]”, in the data set with HeLa Kyoto [1], the “solubility in G1/S (log2)” value is -0.21. In addition, the results for the melting temperature with HeLa Kyoto [2] (cell cycle stage: G1/S) and in the data set on HeLa Kyoto [2] (cell cycle stage: mitosis) were 50.8 °C and 51.1 °C, respectively. For the same sequence, the “solubility change mitosis (log2)” value in the data set on HeLa Kyoto [3] was -0.0806. The thermal stability score was found to be 0.367 in the data set on HeLa Kyoto [4] (setting [5]) and 0.336 in the data set with HeLa Kyoto [4] (cell cycle stage: mitosis).
